These results are taken from the RNAGym collection of RNA variant scans (doi:10.1073/pnas.2313332121).

This sample holds only a part of the variants without activity.

Sequences and labels used below:
B1: TPR 5TU (parent)
chain: GGAUCUUCUCGAUCUAACAAAAAAGACAAAUCUGCCACAAAGCUUGAGAGCAUCUUCGGAUGCAGAGGCGGCAGCCUUCGGUGGCGCGAUAGCGCCAACGUUCUCAACUAUGACACGCAAAACGCGUGCUCCGUUGAAUGGAGUUUAUCAUG

The variants in this series derive from B1. Nature of the series: polymerase ribozyme fitness, log enrichment relative to wild type (log ratio); higher = more active; in vitro selection for triplet polymerase activity. The essentials: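 Frozen incubation at −7 °C formed the core of a single, triplicate in vitro selection round applied to PCR-built, transcribed mutant libraries of each subunit of a heterodimeric triplet polymerase ribozyme. Extended constructs were gel-excised, captured with streptavidin beads and amplified by RT-PCR, and input and output libraries were Illumina-sequenced with a filter of ≥10 input reads and ≥1 read per output. Fitness is the logarithm of genotype enrichment relative to wild-type enrichment, with inverse-variance-weighted replicate averaging, and the logarithm is base 2.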
A3U C27U G81A C96A: the “polymerase ribozyme fitness (log ratio)” value was -3.11. With A17U C76A G83A C87G G124A A150C the figure was no more than -4.2.

As to A64C G68C C87A A91G C99A A121C A122C G143U, the “polymerase ribozyme fitness (log ratio)” value was no more than -4.2. As for A37C G81C C85G C116G U144G, the figure is -4.04; as for A28U A110C, no more than -4.2; as for A29G U53A A110G A120U C123G, no more than -4.2.

In the case of C99A A150G, the “polymerase ribozyme fitness (log ratio)” value is -3.11. As for A3U C93U G141A U146G, the figure is -2.5; as for G48A G117U, -0.676; as for G86U A121U, -0.702. Take A49C A52C G68U G84A G140A: the “polymerase ribozyme fitness (log ratio)” value is no more than -4.2.

Regarding A37C A60U C63U G86U A98G, the “polymerase ribozyme fitness (log ratio)” value was -3.99. With G25U A98U, the “polymerase ribozyme fitness (log ratio)” value was -3.03. As for A20G G140U, the figure is -3.41; as for U31A C103U, 0.00968.

For the variant U6A A20C A49U A52C C79U C93A C118G, the “polymerase ribozyme fitness (log ratio)” value was no more than -4.2. With A40C G68U C99A U130G the figure was no more than -4.2; with U61A A106U, -2.41; with U148G, -3.37. As for A3C U15A C85U, the figure is 0.611; as for U9A A30C A40G A41C C57U C95G, no more than -4.2. With G48C G62A the figure was -3.59. For A21C C27U C35U G68A C96A A147G, the “polymerase ribozyme fitness (log ratio)” value is no more than -4.2.

For G83A G92U G133C A142G, the “polymerase ribozyme fitness (log ratio)” value is -3.79. With C87G G88C G136A the figure was no more than -4.2. With C38U G86A A89C C95G G112C the figure was no more than -4.2; with C5A A12U U13A U15A G83U C95U A107U C108U, no more than -4.2; with C8G A91U A142U, -3.92.

On to U4G C10A U56A G71C G84C, for which the “polymerase ribozyme fitness (log ratio)” value is no more than -4.2. As for C96U A150U, the figure is -0.525; as for A16G G25A U45C U53A A91C C103G C108U C125U, no more than -4.2.

Turning to C14A A40U C87A G136C, the “polymerase ribozyme fitness (log ratio)” value was no more than -4.2. With A60G C99G U102A U144G the figure was no more than -4.2. For the variant U4G C14G A21U A30U C93G C131U G141A, the “polymerase ribozyme fitness (log ratio)” value is no more than -4.2.

C51G C72A C79A G94A: the “polymerase ribozyme fitness (log ratio)” value was no more than -4.2. As for A39C C54A G94A C123U U139A, the “polymerase ribozyme fitness (log ratio)” value was no more than -4.2. As for A17C G94A A121U U145A U148C, the figure is -1.99. Regarding C54A A89G, the “polymerase ribozyme fitness (log ratio)” value is -2.13.

As to A21U C57A A107C U139C A147C, the “polymerase ribozyme fitness (log ratio)” value was no more than -4.2. For the variant C57U U78A G84A C95U U135G, the “polymerase ribozyme fitness (log ratio)” value was no more than -4.2. As for G84A C103G, the figure is -2.32; as for C5A U55A G58C G68U G81A A91U C96A, no more than -4.2. With U61A U146C the figure was -0.489; with G59U A64C G71A G117U, no more than -4.2; with C32G A60G U144G, no more than -4.2.

In the case of C85U C93U, the “polymerase ribozyme fitness (log ratio)” value was -1.93. Turning to G58A G84A U104G, the “polymerase ribozyme fitness (log ratio)” value is -0.568.

For A17G A22G A24U G46A A47C C123A C129A, the “polymerase ribozyme fitness (log ratio)” value was no more than -4.2.

In the case of G25U A49U G50C U61A C95U, the “polymerase ribozyme fitness (log ratio)” value is -3.07. For C75U G83C A138U A142G, the “polymerase ribozyme fitness (log ratio)” value was no more than -4.2. With U6G A52G A106C C116A the figure was -0.169; with C95A U144G, 0.303; with A22U A47C U55G G84U C125G, -3.06. As for C93A C125G, the figure is -2.62; as for G59A G83C, -0.954. With A49G C75A G136U A138C the figure was no more than -4.2; with U44A C93U A120G, -4.11. Turning to C14G U77G G80U C85A, the “polymerase ribozyme fitness (log ratio)” value is no more than -4.2.

For the variant A23G A40U C76U C87U A89G G133C, the “polymerase ribozyme fitness (log ratio)” value was no more than -4.2. As for G83U C95U C116U, the figure is -2.67; as for A21C A24G A28G A29U G71C G83A G124U, no more than -4.2. As for C27G U53A U55A A91G C103G A137U, the figure is no more than -4.2; as for A12G U44A A52G C85A C118U, no more than -4.2. G62U G65A C103A: the “polymerase ribozyme fitness (log ratio)” value is -3.94. As for G42A G46U U82A A121U, the figure is -4.16.

C5U A17C C54A C85A C93U C105G A113G G141A: the “polymerase ribozyme fitness (log ratio)” value is no more than -4.2. With A66C A73C G140U A147C the figure was no more than -4.2. With A21G A30G C125U G133C the figure was no more than -4.2; with U77A G84A C85U, no more than -4.2.

Regarding A20C G83C, the “polymerase ribozyme fitness (log ratio)” value was -1.3. As for A12U U55A, the figure is -0.315; as for U6A U45A, -2.51; as for G11C A30U U82C, no more than -4.2. With G11U A28G A41U U61G G68A C96U A97C C108U G143U C149A the figure was no more than -4.2; with G48A C85U, -2.1; with A41C C54U G141C, -1.43. For G25C C57U, the “polymerase ribozyme fitness (log ratio)” value is -2.94. With G81C C93G A113C C116U G117A C129A the figure was no more than -4.2; with A22U C87G U104A C105A, no more than -4.2; with C79G C87U, -3.7. As for C8A C96A A110U U111G, the figure is no more than -4.2; as for G25C A37C C76A U101G U148G, no more than -4.2; as for A28G U44A U45A C76G U111C G133U, no more than -4.2. With G84A A89G A98G C114U the figure was -2.55; with C5U A41U G50A, -2.81. For G34U U55A A60C A73C C85U G136C U144A, the “polymerase ribozyme fitness (log ratio)” value is no more than -4.2.

A37C U61A: the “polymerase ribozyme fitness (log ratio)” value is -1.77. With C18G C27U A64C C93U the figure was no more than -4.2; with C14G G48U C76U U77G A91C C99G C105G A122G C123G C129G U135G, no more than -4.2; with A20U G94A G112A, -3.86. As for A52G C54U C93A, the figure is -1.98; as for C93U C114A A115C, no more than -4.2.

U9G G42C G58C C95U: the “polymerase ribozyme fitness (log ratio)” value is no more than -4.2. Turning to A47U A97G C132U, the “polymerase ribozyme fitness (log ratio)” value is -2.35. With C131U U146C G152C the figure was -1.2.

Turning to A12U C76G C99U C132G, the “polymerase ribozyme fitness (log ratio)” value is no more than -4.2. With U6C G71A G92A A97G G141U the figure was no more than -4.2. With A49U G94A A119C the figure was -1.28; with C87G A97U, no more than -4.2; with A106C A115U A120C G136C, -3.11. As for C63G C87U C129G U139C G143U, the figure is no more than -4.2. In the case of A19G C57U G65A U102A G126U, the “polymerase ribozyme fitness (log ratio)” value is -3.89. With U9A C27A A40U the figure was no more than -4.2; with A37G A40G A41G C76U C87U C93G C125G, no more than -4.2; with A12C C93U A120G, -0.829. As for C14G U56A A60C G88C C95U U139G G140A, the figure is no more than -4.2; as for A40U C57U G68C A107G C108U U139A, no more than -4.2; as for A24U A52U C95U, -1.25.

Take A20G G83U A89G C99U G141A U146A: the “polymerase ribozyme fitness (log ratio)” value was no more than -4.2. As for U6G C96A A122U, the figure is -0.578; as for A41C A49C U56A G67C C76G C87A, no more than -4.2. As for A29U G46C G83C C108U, the figure is no more than -4.2; as for U15A G42U C87G G94A C99G C125U U148A, no more than -4.2; as for A41U C99A A106U C118A A119G U134C, no more than -4.2. With U53A C96A C125U the figure was -1.41; with U53A C95U U104G A115U C123U, -3.81. For the variant C85U C87U A150G, the “polymerase ribozyme fitness (log ratio)” value is -1.59.

For G25U G86A, the “polymerase ribozyme fitness (log ratio)” value was -3.14. As for A30G A60C G67U G68U G84U G117A U139A, the figure is no more than -4.2; as for C10G A64C G70A A97U U144G A150U, no more than -4.2; as for C18G C32G U55A G83U G88U A113C A138C, no more than -4.2. In the case of A49U C93A C103U A119U, the “polymerase ribozyme fitness (log ratio)” value was no more than -4.2. Consider A28C C38A G46A A66C G71U U127G, for which the “polymerase ribozyme fitness (log ratio)” value is no more than -4.2.

As to C5A C14G, the “polymerase ribozyme fitness (log ratio)” value is -0.996. As for A49C C75A G86U G143C, the figure is -4.19. With A22G G48A G62C G94A C116U the figure was no more than -4.2. As for A37G U56A G124C U134A U144A, the “polymerase ribozyme fitness (log ratio)” value is no more than -4.2.

Turning to C57A C114U A120G C129U, the “polymerase ribozyme fitness (log ratio)” value is no more than -4.2.

As for G83C A97U C103G U139C, the “polymerase ribozyme fitness (log ratio)” value was no more than -4.2. With G59U A60U C85A the figure was -2.59; with A19G U55G C57G A97G A106C, -2.96; with A12U A28G U55A C63U C96G G100A, no more than -4.2. With A52C C87A G88U U135C the figure was no more than -4.2; with C5G G80A, 0.101; with C10G A47G A49G G71A C87U A97U A106G A107C U111G U134C, no more than -4.2. Take A107U A120U C123A: the “polymerase ribozyme fitness (log ratio)” value was -3.58. As to G59U C129G, the “polymerase ribozyme fitness (log ratio)” value was -2.56. On to A28U G92C A113U, for which the “polymerase ribozyme fitness (log ratio)” value was no more than -4.2. With C14U C51U A66G C87A C116U U148C the figure was no more than -4.2; with C5A C54U C75G G80C U82A C87U C99G, no more than -4.2. Consider U31G A52G U55G A98U, for which the “polymerase ribozyme fitness (log ratio)” value is -0.355.

In the case of A19C G59A G84U A98G A115U, the “polymerase ribozyme fitness (log ratio)” value is -3.52.

As to C35U A52C G58U G59C G70U C85A G152U, the “polymerase ribozyme fitness (log ratio)” value was no more than -4.2.
